# Reference: patent publication US20190065668
# B1: recombinant P. falciparum plasmepsin V (residues N80-R528) (protein)
# chain: NASSDLYKYKLYGDIDEYAYYFLDIDIGKPSQRISLILDTGSSSLSFPCNGCKDCGIHMEKPYNLNYSKTSSILYCNKSNCPYGLKCVGNKCEYLQSYCEGSQIYGFYFSDIVTLPSYNNKNKISFEKLMGCHMHEESLFLHQQATGVLGFSLTKPNGVPTFVDLLFKHTPSLKPIYSICVSEHGGELIIGGYEPDYFLSNQKEKQKMDKSDNNSSNKGNVSIKLKNNDKNDDEENNSKDVIVSNNVEDIVWQAITRKYYYYIKIYGLDLYGTNIMDKKELDMLVDSGSTFTHIPENIYNQINYYLDILCIHDMTNIYEINKRLKLTNESLNKPLVYFEDFKTALKNIIQNENLCIKIVDGVQCWKSLENLPNLYITLSNNYKMIWKPSSYLYKKESFWCKGLEKQVNNKPILGLTFFKNKQVIFDLQQNQIAFIESKCPSNLTSSRPR
# B2: recombinant P. vivax plasmepsin V (residues R35-R476), N-terminal fusion tag removed with TEV protease (protein)
# chain: GTRSESTEGHSKDLLYKYKLYGDIDEYAYYFLDIDIGTPEQRISLILDTGSSSLSFPCAGCKNCGVHMENPFNLNNSKTSSILYCENEECPFKLNCVKGKCEYMQSYCEGSQISGFYFSDVVSVVSYNNERVTFRKLMGCHMHEESLFLYQQATGVLGMSLSKPQGIPTFVNLLFDNAPQLKQVFTICISENGGELIAGGYDPAYIVRRGGSKSVSGQGSGPVSESLSESGEDPQVALREAEKVVWENVTRKYYYYIKVRGLDMFGTNMMSSSKGLEMLVDSGSTFTHIPEDLYNKLNYFFDILCIQDMNNAYDVNKRLKMTNESFNNPLVQFDDFRKSLKSIIAKENMCVKIVDGVQCWKYLEGLPDLFVTLSNNYKMKWQPHSYLYKKESFWCKGIEKQVNNKPILGLTFFKNRQVIFDIQKNRIGFVDANCPSHPTHTRPR
# Biological target: fluorogenic KAHRP PEXEL peptide DABCYL-…-E-EDANS
Protein,Km,cleavage of the fluorogenic peptide
B1,"20.2 µM and 6.0 µM for the P. falciparum and P. vivax enzymes, respectively",demonstrated specific activity against the PEXEL substrates and cleaved the peptides after the P1 Leucine residue as expected
B2,"20.2 µM and 6.0 µM for the P. falciparum and P. vivax enzymes, respectively",demonstrated specific activity against the PEXEL substrates and cleaved the peptides after the P1 Leucine residue as expected
